The values below come from article doi:10.1101/2023.03.09.531850.

The assay deals with EcbAgaN (Escherichia coli long-B pAgo-associated nuclease) (Escherichia coli). The assay is described as follows: SEC-MALS. For orientation: SEC sorts molecules by how far they enter the pores of the column.

Regarding “EcbAgaN (Escherichia coli long-B pAgo-associated nuclease) (enzyme)”, the stoichiometry N (usually the number of molecules, sites or subunits per partner or assembly) worked out at 2.
